# Experiments:
# [1] = target: T1, TadA7.10 (Escherichia coli? (laboratory-evolved …, UniProt P68398 1-167, W23R;H36L;P48A;R51L;L84F;A106V;D108N;H123Y;S146C;D147Y;R152P;E155V;I156F;K157N)); assay: SEC; Superdex 200 Increase 10/300 GL, 20 mM HEPES pH7.5, 500 mM KCl; elution position between 44.0 and 29.0 kDa compared with the monomer mass of about 18.7 kDa
# [2] = target: TadA8e (E. coli) (UniProt P68398); assay: as above
# [3] = target: T1, TadA7.10; assay: MST; 5 mM Mg2+; MST: 20 mM HEPES pH 7.5, 200 mM KCl, 5 mM MgCl2, 1 mM DTT, 0.05% Tween-20; 100 nM DNA; 120 min at room temperature; conditions: protein: recombinant; tags: N-terminal non-cleavable His6; chain copies: 2; label: 5' 6-FAM; single-stranded
# [4] = target: TadA7.10-3mut (Escherichia coli? (laboratory-evolved …, UniProt P68398 1-167, W23R;H36L;P48A;R51L;L84F;A106V;D108N;T111R;D119N;H123Y;S146C;D147Y;R152P;E155V;I …)); assay: as above; conditions: protein: recombinant; tags: N-terminal non-cleavable His6; chain copies: 2; label: 5' 6-FAM; single-stranded
molecule,measurement,setting,value
TadA7.10 (from UniProt P68398 1-167) (enzyme),stoichiometry N,[1],2
TadA8e (from UniProt P68398 1-167) (enzyme),stoichiometry N,[2],2
TTCTCTTCCACTTTCTTTT (ssDNA) [19-nt ssDNA (NTS of 6VPC with five bases mutated at either end)],Kd,[3],106 nM
same,Kd,[4],38.5 nM

# Source: article PMC11335294, “Directed-evolution mutations enhance DNA-binding affinity and protein stability of the adenine base editor ABE8e”
